Laboratory results taken from the DeepSol protein solubility set.

Assay: soluble on expression in E. coli; label from the status in PepcDB or PDB records

| Sequence | soluble on expression in E. coli |
| --- | --- |
| SIEKIWAREILDSRGNPTVEVDLYTAKGLFRAAVPSGASTGIYEALELRDGDKQRYLGKGVLKAVDHINSTIAPALISSGLSVVEQEKLDNLMLELDGTENKSKFGANAILGVSLAVCKAGAAERELPLYRHIAQLAGNSDLILPVPAFNVINGGSHAGNKLAMQEFMILPVGAESFRDAMRLGAEVYHTLKGVIKDKYGKDATNVGDEGGFAPNILENSEALELVKEAIDKAGYTEKIVIGMDVAASEFYRDGKYDLDFKSPTDPSRYITGDQLGALYQDFVRDYPVVSIEDPFDQDDWAAWSKFTANVGIQIVGDDLTVTNPKRIERAVEEKACNCLLLKVNQIGSVTEAIQACKLAQENGWGVMVSHRSGETEDTFIADLVVGLCTGQIKTGAPCRSERLAKYNQLMRIEEELGDEARFAGHNFRNPSVLHHHHHH | soluble |
| SIGLFKVKEKQREQAQNATRGGASVKKQSAGELRLHKDISELNLPSSCSISFPNGKDDLMNFEVSIKPDDGYYHNGTFVSHSKSLLCIHMKLQKLNAKPRFIIPISIWKETFA | soluble |
| SIRLPAHLRLQPIYWSRDDVAQWLKWAENEFSLRPIDSNTFEMNGKALLLLTKEDFRYRSPHSGDELYELLQHILKQRDHHHHHHHRHD | soluble |
| SKIYDNKNQLIADLGSERRVNAQANDIPTDLVKAIVSIEDHRFFDHRGIDTIRILGAFLRNLQSNSLQGGSTLTQQLIKLTYFSTSTSDQTISRKAQEAWLAIQLEQKATKQEILTYYINKVYMSNGNYGMQTAAQNYYGKDLNNLSLPQLALLAGMPQAPNQYDPYSHP | not soluble |
| SKPSKPFNVDDVLKFTFTGEKHHHHHH | soluble |
| SKVFNLDRGNTLSVSLFSGVTNSKELLNSMLDGSLKLEVSFLNASLIPGIFPLLAAAQKALISKSRDSLSTRTLHSELVYNYSGSKHITESLKRCGISENTTYILAARFNASPVEMEEVAKLINGKEIDLEELKTHANQANILKHYKITSQELGISSLGDAIVCRIAARDAL | soluble |
| SLAEGLITGTVLTQFDQLYRKKPGMTMSCAKLPQNISKNRYRDISPYDATRVILKGNEDYINANYINMEIPSSSIINQYIACQGPLPHTCTDFWQMTWEQGSSMVVMLTTQVERGRVKCHQYWPEPTGSSSYGCYQVTCHSEEGNTAYIFRKMTLFNQEKNESRPLTQIQYIAWPDHGVPDDSSDFLDFVCHVRNKRAGKEEPVVVHCSAGIGRTGVLITMETAMCLIECNQPVYPLDIVRTMRDQRAMMIQTPSQYRFVCEAILKVYEEGFVKPLTTSTNK | not soluble |
| SLDFRDKVRNMDLQAGLYRHYKGQNYRVLGVARHSETEEALVIYQALYGEFGLWVRPLEMFTEAVEVDGEWVPRFVLVSPEADPLGLQKAPGGEDRA | soluble |
| SLDKIEHIGIAVKNLEAGNSLYEKLMGVPHYKIEEVASEGVRTSFFKTGPNKIELLEATNDDSAIAKFIEKKGEGIHHIAFAVENIVEEMERLKKEGFIILNEKPKKGADNKLVAFVHPKTAGGVLIELCQEINEG | soluble |
| SLELWLNKATDPSMSEQDWSAIQNFCEQVNTDPNGPTHAPWLLAHKIQSPQEKEALYALTVLEMCMNHCGEKFHSEVAKFRFLNELIKVLSPKYLGSWATGKVKGRVIEILFSWTVWFPEDIKIRDAYQMLKKQGIIKQDPKLPVDKI | soluble |
| SLGRIKAQAFGFDQTFQSYRKDDFVMAFFKDPNVIPNLKLLSDSSGQWIILGTEVKKIEAINVPCTQLSMSFFHRLYDEDIVRDSGHIVKCLDSFCDPFLISDELRRVLLVEDSEKYEIFSQPDREEFLFCLFKHLCLGGALCQYEDVISPYLETTKLIYKDLVSVRKNPQTKKIQITSSVFKVSAYDSAGMCYPSAKNHEQTFSYFIVDPIRRHLHVLYHCYGVGDMS | soluble |
| SLHCIPLWRCNRHVESIDKRHCSLVYVPEEIYRYARSLEELLLDANQLRELPEQFFQLVKLRKLGLSDNEIQRLPPEIANFMQLVELDVSRNEIPEIPESISFCKALQVADFSGNPLTRLPESFPELQNLTCLSVNDISLQSLPENIGNLYNLASLELRENLLTYLPDSLTQLRRLEELDLGNNEIYNLPESIGALLHLKDLWLDGNQLSELPQEIGNLKNLLCLDVSENRLERLPEEISGLTSLTDLVISQNLLETIPDGIGKLKKLSILKVDQNRLTQLPEAVGECESLTELVLTENQLMTLPKSIGKLKKLSNLNADRNKLVSLPKEIGGCCSLTVFCVRDNRLTRIPAEVSQATELHVLDVAGNRLLHLPLSLTALKLKALWLSDNQSQPMLTFQTDTDYTTGEKILTCVLLPQLPSEPTCQENLPRCGALENLVNDVSDEAWNERAVNRVSAIRFVEDEKDEEDNETRTLLRRATPHPGELKHMKKTVENLRNDMNAAKGLDSNKNEVNHAIDRVTTS | not soluble |
| SLHELSLCQSAVEIIQRQAEQHDVKRVTAVWLEIGALSCVEESAVRFSFEIVCHGTVAQGCDLHIVYKPAQAWCWDCSQVVEVHQHDAQCPLCHGERLRVDTGDSLIVKSIEVE | soluble |
| SLHGELDKIYETLALAERRGPGPVDLLLCCGDFQAVRNEADLRCMAVPPKYRHMQTFYRYYSGEKKAPVLTLFIGGNHEASNHLQELPYGGWVAPNIYYLGLAGVVKYRGVRIGGISGIFKSHDYRKGHFECPPYNSSTIRSIYHVRNIEVYKLKQLKQPIDIFLSHDWPRSIYHYGNKKQLLKTKSFFRQEVENNTLGSPAASELLEHLKPTYWFSAHLHVKFAALMQHQAKDKGQTARATKFLALDKCLPHRDFLQILEIEHDPSAPDYLEYDIEWLTILRATDDLINVTGRLWNMPENNGLHARWDYSATEEGMKEVLEKLNHDLKVPCNFSVTAACYDPSKPQT | not soluble |
| SLIKEQASKLIKEIVNQISSLASISNFVLLFPRLDFKGLGYIPQLFFIFVKHDLIEENLSSVSSARAVIDFTNTKSEYVNFNITPRPEIVTINKGILSSIYDQTLIRALRETPFMNSALEFNSNFIKMQFRQRFNLGVYYSMYSPSVGFHEVVSISSLKLKDTVYLEEVEISLQVKICKTFNILTYKG | soluble |
| SLIRGWLAEGERMKETSYYSYVVGELPKGCQYCVRGEKLVLFVTGVCPRNCFYCPLSPWRRKDVAYANERPIRKIEDIIEEAKIQEARGAGVTGGDPLARLNRTVEYIRTLKEEFGKKFHIHLYTTGILADKRALSMLYDAGLDEIRFHPDLFEPSSKFLNREIENLKNAFDFDWDVGGEVPAVPGFGDRIKWFAEILDKFGGKFLNINELEYSETNLSNILNRGFKLAGENSFAIKGSLELGLEILEWGEKNTSLYYHLCTAKLKDAVQLRNRLRRMAKNVAKPYMEITEDGTLRFGIAEYEDLEELYKFLVEEAEVPKEWLYINWEKKRIEMPVEVAEELAEAIEGDVKFYIVEEYPTWDRIEVERIPLNEG | soluble |
| SLKEPRWRDPELPEVLAMLRHPVDPVKANAAAYLQHLCFENEGVKRRVRQLRGLPLLVALLDHPRAEVRRRACGALRNLSYGRDTDNKAAIRDCGGVPALVRLLRAARDNEVRELVTGTLWNLSSYEPLKMVIIDHGLQTLTHEVIVPHSGWEREPNEDSKPRDAEWTTVFKNTSGCLRNVSSDGAEARRRLRECEGLVDALLHALQSAVGRKDTDNKSVENCVCIMRNLSYHVHKEVPGADRYQEAEPGPLGSAVGSQRRRRDDASCFGGKKAKEEWFHQGKKDGEMDRNFDTLDLPKRTEAAKGFELLYQPEVVRLYLSLLTESRNFNTLEAAAGALQNLSAGNWMWATYIRATVRKERGLPVLVELLQSETDKVVRAVAIALRNLSLDRRNKDLIGSYAMAELVRNVRNAQAPPRPGACLEEDTVVAVLNTIHEIVSDSLDNARSLLQARGVPALVALVASSQSVREAKAASHVLQTVWSYKELRGTLQKDGWTKARFQSAAATAKGPK | soluble |
| SLKGRWVKYLLMGTVVAMLAACSSKPTDRGQQYKDGKFTQPFSLVNQPDAVGAPINAGDFAEQINHIRNSSPRLYGNQSNVYNAVQEWLRAGGDTRNMRQFGIDAWQMEGADNYGNVQFTGYYTPVIQARHTRQGEFQYPIYRMPPKRGRLPSRAEIYAGALSDKYILAYSNSLMDNFIMDVQGSGYIDFGDGSPLNFFSYAGKNGHAYRSIGKVLIDRGEVKKEDMSMQAIRHWGETHSEAEVRELLEQNPSFVFFKPQSFAPVKGASAVPLVGRASVASDRSIIPPGTTLLAEVPLLDNNGKFNGQYELRLMVALDVGGAIKGQHFDIYQGIGPEAGHRAGWYNHYGRVWVLKTAPGAGNVFSG | not soluble |
| SLKTIDMKYLRLLAKEYPTIAKTATEIINLEAIMNLPKGTEHFLSDVHGEYSAFEQVLRNGSGVVKRKIRDIFGAELDDAEINSLSTLIYYPEEKMDLLASETEDLQAWYRTTLFRLIELCQYVASKYTRSKVRKAMPEDFAYILEELLHENYNEDDKKLYYEEILQHIISLGRAEEFISALSLLIQQLVVDHLHIVGDVYDRGPYPDKIMDTLMNYHSLDFQWGNHDILWMGAASGSRVCAANVIRISARYLNLDILEDSYGISLRPLALFADEVYKDDPCTYFQPKNEENINYSNAEITQIARMHKAISIIQFKLEGEIINRRKEFDMDHRLLLQFIDYKKGTIHLKGKEYLLLDSHFPTINPEKPYELTDAERELIGKITAAFKNCRRLQKHVQFLYSKGSMFLTYNGNLLYHGCIPLHEDGTFMEMKLRGEKYAGRSLLEQFEILTREAYVRPTGTKEKKYACDIVWYLWTGAISSLFGKSEMTTFERYFVAEKETHTEEKNPYYKLRNNELICKQILEEFGLDGECGHIINGHTPVKEGKGESPIKANGKMLVIDGGFAKAYHKETNLAGYTLLFNSYGLQLVSHQPFTTKEDAIKNETDILSTRQVIEMEINRKRVRDTDIGAKLSEQAEDLKLLLDAYRNGLLHENR | soluble |
| SLLAMPSAISVAVLPDSPHAREMATKAHNSGHEVLIHLPMAPLSKQPLEKNTLRPEMSSDEIERIIRSAVNNVPYAVGINNHMGSKMTSNLFGMQKVMQALERYNLYFLDSVTIGNTQAMRAAQGTGVKVIKRKVFLDDSQNEADIRVQFNRAIDLARRNGSTIAIGHPHPSTVRVLQQMVYNLPPDITLVKASSLLNEPQVDTSTPPKNAVPDAPRNPFRGVKLCKPKKPIEPVYANRFFEVLSESISQSTLIVYFQHQWQGWGKQPEAAKFNASAN | soluble |
| SLNPRDVVIVDFGRTPMGRSKGGMHRNTRAEDMSAHLISKVLERNSKVDPGEVEDVIWGCVNQTLEQGWNIARMASLMTQIPHTSAAQTVSRLCGSSMSALHTAAQAIMTGNGDVFVVGGVEHMGHVSMMHGVDPNPHMSLYAAKASGMMGLTAEMLGKMHGISREQQDAFAVRSHQLAHKATVEGKFKDEIIPMQGYDENGFLKIFDYDETIRPDTTLESLAALKPAFNPKGGTVTAGTSSQITDGASCMIVMSAQRAKDLGLEPLAVIRSMAVAGVDPAIMGYGPVPATQKALKRAGLNMADIDFIELNEAFAAQALPVLKDLKVLDKMNEKVNLHGGAIALGHPFGCSGARISGTLLNVMKQNGGTFGLSTMCIGLGQGIATVFERV | soluble |
| SLNSVTRLDGANRYEVAVNVSKQGWTSASTVIVANGKAYADVLSATPFAYRNNAPVLLTEASKLPTATKNRISQLKPSKVIVIGGTVSVQNGVVSEIKKLGVSSVERIGGANRYEVAANIANKLPSNSKAVIANGTAYADSLAIGAYAARNGIPILLTSSNSIPTATKNAMKSKGTTSTIVVGGEVSISSSVYKQLASPTRIGGSNRYEVAANVVKKYYSSAKNAIISNGYAYADGLTGSVLAAKQNRPMMFTNASSLPTPTREVIGSKNMTTFTVLGGTVSLQSNVVSQLKN | not soluble |
